# From US20050037420A1 (published 2005)
# T1: full-length NSM protein (putative movement protein of Tomato Spotted Wilt Virus) obtained from the IMPACT … (Tomato Spotted Wilt Virus, UniProt P36292 1-301)
# T1 construct: mature; also called soluble NSM protein
# T1 sequence (looked up): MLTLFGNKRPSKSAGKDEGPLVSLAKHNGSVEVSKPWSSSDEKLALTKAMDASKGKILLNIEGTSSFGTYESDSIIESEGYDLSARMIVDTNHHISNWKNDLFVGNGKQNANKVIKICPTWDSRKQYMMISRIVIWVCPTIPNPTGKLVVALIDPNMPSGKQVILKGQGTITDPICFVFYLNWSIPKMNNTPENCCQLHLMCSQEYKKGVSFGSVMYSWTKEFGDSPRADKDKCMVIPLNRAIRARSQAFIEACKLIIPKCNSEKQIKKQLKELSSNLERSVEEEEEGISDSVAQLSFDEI
# Target: T1, full-length NSM protein (putative …)
# Assay: ELISA, full-length NSM coated, mini-scale expressed soluble scFv; vector control OD 0.02
# From the text: NSM-specific clones were identified by ELISA using mini-scale expressed soluble scFvs and full-length NSM protein for coating.
row,Binder,OD410 nm [OD]
1,"scFv N12 (scFv, Soluble scFv, mini-scale (pHEN4II, c-myc tag) or large-scale (pTMZ1, IMAC purified) from E. coli; also called clone N12; not shown: C-terminal c-myc and his-6 tags from the expression vector) scFv: AVTLDESGGGLQTPGGGLSLVCKASGFDFSSYDMVWVRQAPGKGLEWVAGISSGSGPNYGAAVKGRATISRDNGQSTVRLQLNNLRAEDTATYYCAKNEGADWCGHYYCSVAYIDAWGHGTEVTVSSGSTSGSGKPGPGEGSTKGAPALTQPSSVSANPGETVKITCSGGSGDHYGWFQQKSPGSAPVTVIYNNDNRPSDIPSRFSGSKSGSTHTLTITGVQVEDEAVYFCGNRDSSAGIFGAGTTLTVLGQP",0.2
2,"scFv N5 (scFv, Soluble scFv, mini-scale (pHEN4II, c-myc tag) or large-scale (pTMZ1, IMAC purified) from E. coli; also called clone N5; not shown: C-terminal c-myc and his-6 tags from the expression vector) scFv: AVTLDESGGGLQTPGGGLSLVCKASGFDFSSYDMVWVRQAPGKGLEWVAGISSGSVPNYGAAVKGRATISRDNGQSTVRLQLNNLRAEDTATYYCAKNEGADWCGHYYCSVAYIDAWGHGTEVTVSSGSTSGSGKPGPGEGSTKGAPALTQPSSVSANPGETVKITCSGGSGDHYGWFQQKSPGSAPVTVIYKNENRPSDIPSRFSGSKSGSTHTLTITGVQVEDEAVYFCGNRDSSAGIFGAGTTLTVLGQP",0.2
3,"scFv N3 (scFv, Soluble scFv, mini-scale (pHEN4II, c-myc tag) or large-scale (pTMZ1, IMAC purified) from E. coli; also called clone N3; not shown: C-terminal c-myc and his-6 tags from the expression vector) scFv: AVTLDESGGGLQTPGGGLSLVCKASGFSFSSYSMGWVRQAPGKGLEWVAGIGSSVIRTYYAPAVKGRATIPRDNGQSTVRLQLNDLRAEDTGTYYCAKESGSGKWFSIGQIDAWGHGTEVTVSSGSTSGSGKPGPGEGSTKGAPALTQPSSVSANPGGTVQITCSGGSGSYGWFQQKSPGSAPVTVIYSSDKRPSDIPSRFSGSKSGSTGTLTITGVQADDEAVYFCGSADSSHLGIFGAGTTLTVLGQP",0.2
4,"scFv N10 (scFv, Soluble scFv, mini-scale (pHEN4II, c-myc tag) or large-scale (pTMZ1, IMAC purified) from E. coli; also called clone N10; not shown: C-terminal c-myc and his-6 tags from the expression vector) scFv: AVTLDESGGGLQTPGGGLSLVCKASGFSFSSYSMGWVRQAPGKGLEWVAGIGSSVIRTYYAPAVKGRATIPRDNGQSTVRLQLNDLRAEDTGTYYCAKESGSGKWFSIGQIDAWGHGTEVTVSSGSTSGSGKPGPGEGSTKGAPALTQPSSVSANPGGTVQITCSGGSGNYGWFQQKSPGSAPVTVIYSSDKRPSDIPSRFSGSKSGSTGTLTITGVQADDEAVYFCGSADSSHLGIFGAGTTLTVLGQP",0.2
